Measured values taken from patent publication US20080194482A1, “Selective Apac2 Receptor Peptide Agonists” (priority 2005, published 2008).
Numbered stars: 1 amine (or outer) side, 2 acyl side, 3 side chain; on linkers, the order of the positions; unused ones are H or OH. Square brackets hold non-standard residues; d marks the D form. Ends that are not written are not given here. Peptide text beside a SMILES is read from it. * marks the point of attachment. Tyr(OMe) = O-methyl-tyrosine, COc1ccc(C[C@H](N[*:1])C(=O)[*:2])cc1; Orn = NCCC[C@H](N)C(=O)O; Hexanoyl = CCCCCC(=O)*; Aib = CC(C)(N)C(=O)O

T1: rat VPAC2 receptor (rat, UniProt P35000 23-437)
T1 sequence (looked up): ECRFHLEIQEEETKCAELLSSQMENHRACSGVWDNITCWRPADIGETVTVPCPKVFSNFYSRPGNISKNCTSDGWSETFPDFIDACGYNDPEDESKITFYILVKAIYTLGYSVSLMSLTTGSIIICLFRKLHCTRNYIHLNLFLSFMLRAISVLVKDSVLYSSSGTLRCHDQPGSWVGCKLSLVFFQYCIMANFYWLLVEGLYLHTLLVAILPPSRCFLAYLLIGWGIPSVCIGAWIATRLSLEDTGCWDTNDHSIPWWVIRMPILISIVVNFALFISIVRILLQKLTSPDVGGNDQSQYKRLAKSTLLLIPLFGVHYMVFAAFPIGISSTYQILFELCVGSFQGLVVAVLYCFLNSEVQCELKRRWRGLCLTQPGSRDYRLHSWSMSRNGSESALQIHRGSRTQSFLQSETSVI

T2: rat VPAC1 receptor (rat, UniProt P30083 31-459)
T2 sequence (looked up): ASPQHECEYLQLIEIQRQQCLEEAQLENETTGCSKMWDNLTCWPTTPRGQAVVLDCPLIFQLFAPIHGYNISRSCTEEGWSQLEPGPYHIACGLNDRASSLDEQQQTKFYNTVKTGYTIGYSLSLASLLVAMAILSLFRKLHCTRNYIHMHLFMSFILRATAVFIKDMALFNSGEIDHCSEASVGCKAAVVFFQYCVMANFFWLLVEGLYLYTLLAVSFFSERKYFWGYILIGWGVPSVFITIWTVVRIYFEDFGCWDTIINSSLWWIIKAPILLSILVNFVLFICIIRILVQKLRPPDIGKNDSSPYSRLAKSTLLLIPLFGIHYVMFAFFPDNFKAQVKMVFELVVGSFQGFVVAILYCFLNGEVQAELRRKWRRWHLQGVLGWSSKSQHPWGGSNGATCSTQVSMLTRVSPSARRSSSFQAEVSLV

T3: human PAC1 (Homo sapiens, UniProt P41586)
T3 construct: expressed in transfected cells
T3 sequence (P41586 21-468): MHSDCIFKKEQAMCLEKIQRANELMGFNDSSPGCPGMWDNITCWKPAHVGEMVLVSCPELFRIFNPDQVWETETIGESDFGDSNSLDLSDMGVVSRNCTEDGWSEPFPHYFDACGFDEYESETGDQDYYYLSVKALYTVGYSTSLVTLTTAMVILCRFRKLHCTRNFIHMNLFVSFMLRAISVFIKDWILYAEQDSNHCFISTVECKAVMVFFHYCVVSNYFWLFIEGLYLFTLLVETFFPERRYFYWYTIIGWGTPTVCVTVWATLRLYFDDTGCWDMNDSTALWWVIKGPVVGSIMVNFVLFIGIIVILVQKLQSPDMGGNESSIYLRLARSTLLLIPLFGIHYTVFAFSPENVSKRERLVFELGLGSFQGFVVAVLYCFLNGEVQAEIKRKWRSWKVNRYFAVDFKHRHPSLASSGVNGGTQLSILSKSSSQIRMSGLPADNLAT

T4: human VPAC2 receptor (human, UniProt P41587 24-438)
T4 sequence (looked up): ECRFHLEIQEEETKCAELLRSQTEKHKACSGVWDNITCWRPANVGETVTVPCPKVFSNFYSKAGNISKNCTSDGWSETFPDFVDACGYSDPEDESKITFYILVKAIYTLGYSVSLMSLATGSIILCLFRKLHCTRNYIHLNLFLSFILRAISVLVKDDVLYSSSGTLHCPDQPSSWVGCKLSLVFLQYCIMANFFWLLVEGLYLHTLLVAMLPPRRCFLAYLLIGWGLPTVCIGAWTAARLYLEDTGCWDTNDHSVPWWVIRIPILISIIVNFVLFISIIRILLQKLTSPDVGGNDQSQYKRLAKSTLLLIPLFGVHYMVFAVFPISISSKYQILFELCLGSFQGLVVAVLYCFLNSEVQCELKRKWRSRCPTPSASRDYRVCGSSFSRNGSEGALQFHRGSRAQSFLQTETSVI

B1: VPAC2 receptor peptide agonist P487 (peptide)
peptide: HSDAVFTEQYTXLRXQLAAXXYLQSIXXGGPSSGAPPPS
modifications: N-terminal hexanoyl (C6); Tyr(OMe) at 10; Orn at 12, 21, 27 and 28; Aib at 15 and 20; C-terminal amide (-NH2)

Each molecule was assayed against T1, rat VPAC2 receptor (assay: cell-based or functional assay). Conditions: not given.

Molecule	Rat VPAC2 Receptor: DiscoveRx (EC50; nM), cAMP generation
HSDAVFTDNYTXLRXSVAAXKYLQSIXNXGGPSSGAPPPS (N-terminal hexanoyl (C6); Orn at 12, 27 and 29; Aib at 15 and 20) [VPAC2 receptor peptide agonist P390]	0.09 nM
HSDAVFTDQYTXLRXQLAAXXYLQSIXXGGPSSGAPPPS (N-terminal hexanoyl (C6); Orn at 12, 21, 27 and 28; Aib at 15 and 20) [VPAC2 receptor peptide agonist P395]	0.03 nM
HSDAVFTDQYTXLRXQVAAXXYLQSIXXGGPSSGAPPPS (N-terminal hexanoyl (C6); Orn at 12, 21, 27 and 28; Aib at 15 and 20) [VPAC2 receptor peptide agonist P396]	0.05 nM
B1	0.03 nM
Hexanoyl-HSDAVFTDNYTR[Aib]R[Aib]QVAA[Aib]KYLQSIK[Aib]KGGPSSGAPPPS [VPAC2 receptor peptide agonist P405]	0.04 nM
Hexanoyl-HSDAVFTDQYTR[Aib]R[Aib]QLAA[Aib]KYLQSIK[Aib]KGGPSSGAPPPS [VPAC2 receptor peptide agonist P407]	0.03 nM

Each molecule was assayed against T2, rat VPAC1 receptor (assay: cell-based or functional assay). Conditions: not given.

Molecule	Rat VPAC1 Receptor: DiscoveRx (EC50; nM), cAMP generation
HSDAVFTDNYTXLRXSVAAXKYLQSIXNXGGPSSGAPPPS (N-terminal hexanoyl (C6); Orn at 12, 27 and 29; Aib at 15 and 20) [VPAC2 receptor peptide agonist P390]	1.34 nM
HSDAVFTDQYTXLRXQLAAXXYLQSIXXGGPSSGAPPPS (N-terminal hexanoyl (C6); Orn at 12, 21, 27 and 28; Aib at 15 and 20) [VPAC2 receptor peptide agonist P395]	0.35 nM
HSDAVFTDQYTXLRXQVAAXXYLQSIXXGGPSSGAPPPS (N-terminal hexanoyl (C6); Orn at 12, 21, 27 and 28; Aib at 15 and 20) [VPAC2 receptor peptide agonist P396]	1.05 nM
B1	1.42 nM

These molecules were tested against T3, human PAC1 (assay: Filter binding assay, 125I-labeled PACAP-27 tracer, PAC1 membranes). Conditions: read-out: Human PAC1 Receptor Binding (IC50; nM).

Molecule	IC50
CCCCCC(=O)N[C@@H](Cc1c[nH]cn1)C(=O)N[C@@H](CO)C(=O)N[C@@H](CC(=O)O)C(=O)N[C@@H](C)C(=O)N[C@H](C(=O)N[C@@H](Cc1ccccc1)C(=O)N[C@H](C(=O)N[C@@H](CC(=O)O)C(=O)N[C@@H](CC(N)=O)C(=O)N[C@@H](Cc1ccc(O)cc1)C(=O)N[C@H](C(=O)N[C@@H](CCCN)C(=O)N[C@@H](CC(C)C)C(=O)N[C@@H](CCCNC(=N)N)C(=O)NC(C)(C)C(=O)N[C@@H](CCC(N)=O)C(=O)N[C@@H](CO)C(=O)N[C@@H](C)C(=O)N[C@@H](C)C(=O)NC(C)(C)C(=O)N[C@@H](CCCCN)C(=O)N[C@@H](Cc1ccc(O)cc1)C(=O)N[C@@H](CC(C)C)C(=O)N[C@@H](CCC(N)=O)C(=O)N[C@@H](CO)C(=O)N[C@H](C(=O)N[C@@H](CCCN)C(=O)N[C@@H](CC(N)=O)C(=O)N[C@@H](CCCN)C(=O)NCC(=O)NCC(=O)N1CCC[C@H]1C(=O)N[C@@H](CO)C(=O)N[C@@H](CO)C(=O)NCC(=O)N[C@@H](C)C(=O)N1CCC[C@H]1C(=O)N1CCC[C@H]1C(=O)N1CCC[C@H]1C(=O)N[C@@H](CO)C(=O)O)[C@@H](C)CC)[C@@H](C)O)[C@@H](C)O)C(C)C [Agonist P389] (Hexanoyl-HSDAVFTDNYT[Orn]LR[Aib]QSAA[Aib]KYLQSI[Orn]N[Orn]GGPSSGAPPPS-OH; C-terminus assumed)	> 25000 nM
CCCCCC(=O)N[C@@H](Cc1c[nH]cn1)C(=O)N[C@@H](CO)C(=O)N[C@@H](CCC(=O)O)C(=O)N[C@@H](C)C(=O)N[C@H](C(=O)N[C@@H](Cc1ccccc1)C(=O)N[C@H](C(=O)N[C@@H](CCC(=O)O)C(=O)N[C@@H](CCC(N)=O)C(=O)N[C@@H](Cc1ccc(OC)cc1)C(=O)N[C@H](C(=O)N[C@@H](CCCN)C(=O)N[C@@H](CC(C)C)C(=O)N[C@@H](CCCNC(=N)N)C(=O)NC(C)(C)C(=O)N[C@@H](CCC(N)=O)C(=O)N[C@@H](CC(C)C)C(=O)N[C@@H](C)C(=O)N[C@@H](C)C(=O)NC(C)(C)C(=O)N[C@@H](CCCN)C(=O)N[C@@H](Cc1ccc(O)cc1)C(=O)N[C@@H](CC(C)C)C(=O)N[C@@H](CCC(N)=O)C(=O)N[C@@H](CO)C(=O)N[C@H](C(=O)N[C@@H](CCCN)C(=O)N[C@@H](CCCN)C(=O)NCC(=O)NCC(=O)N1CCC[C@H]1C(=O)N[C@@H](CO)C(=O)N[C@@H](CO)C(=O)NCC(=O)N[C@@H](C)C(=O)N1CCC[C@H]1C(=O)N1CCC[C@H]1C(=O)N1CCC[C@H]1C(=O)N[C@@H](CO)C(=O)O)[C@@H](C)CC)[C@@H](C)O)[C@@H](C)O)C(C)C [Agonist P393] (Hexanoyl-HSEAVFTEQY(Me)T[Orn]LR[Aib]QLAA[Aib][Orn]YLQSI[Orn][Orn]GGPSSGAPPPS-OH; C-terminus assumed)	> 25000 nM
CCCCCC(=O)N[C@@H](Cc1c[nH]cn1)C(=O)N[C@@H](CO)C(=O)N[C@@H](CC(=O)O)C(=O)N[C@@H](C)C(=O)N[C@H](C(=O)N[C@@H](Cc1ccccc1)C(=O)N[C@H](C(=O)N[C@@H](CC(=O)O)C(=O)N[C@@H](CO)C(=O)N[C@@H](Cc1ccc(O)cc1)C(=O)N[C@H](C(=O)N[C@@H](CCCN)C(=O)N[C@@H](CC(C)C)C(=O)N[C@@H](CCCNC(=N)N)C(=O)NC(C)(C)C(=O)N[C@@H](CCC(N)=O)C(=O)N[C@H](C(=O)N[C@@H](C)C(=O)N[C@@H](C)C(=O)NC(C)(C)C(=O)N[C@@H](CCCCN)C(=O)N[C@@H](Cc1ccc(O)cc1)C(=O)N[C@@H](CC(C)C)C(=O)N[C@@H](CCC(N)=O)C(=O)N[C@@H](CO)C(=O)N[C@H](C(=O)N[C@@H](CCCN)C(=O)N[C@@H](CC(N)=O)C(=O)N[C@@H](CCCN)C(=O)NCC(=O)NCC(=O)N1CCC[C@H]1C(=O)N[C@@H](CO)C(=O)N[C@@H](CO)C(=O)NCC(=O)N[C@@H](C)C(=O)N1CCC[C@H]1C(=O)N1CCC[C@H]1C(=O)N1CCC[C@H]1C(=O)N[C@@H](CO)C(=O)O)[C@@H](C)CC)C(C)C)[C@@H](C)O)[C@@H](C)O)C(C)C [Agonist P392] (Hexanoyl-HSDAVFTDSYT[Orn]LR[Aib]QVAA[Aib]KYLQSI[Orn]N[Orn]GGPSSGAPPPS-OH; C-terminus assumed)	> 25000 nM
CCCCCC(=O)N[C@@H](Cc1c[nH]cn1)C(=O)N[C@@H](CO)C(=O)N[C@@H](CC(=O)O)C(=O)N[C@@H](C)C(=O)N[C@H](C(=O)N[C@@H](Cc1ccccc1)C(=O)N[C@H](C(=O)N[C@@H](CC(=O)O)C(=O)N[C@@H](CC(N)=O)C(=O)N[C@@H](Cc1ccc(O)cc1)C(=O)N[C@H](C(=O)N[C@@H](CCCN)C(=O)N[C@@H](CC(C)C)C(=O)N[C@@H](CCCNC(=N)N)C(=O)NC(C)(C)C(=O)N[C@@H](CCC(N)=O)C(=O)N[C@H](C(=O)N[C@@H](C)C(=O)N[C@@H](C)C(=O)NC(C)(C)C(=O)N[C@@H](CCCCN)C(=O)N[C@@H](CO)C(=O)N[C@@H](CC(C)C)C(=O)N[C@@H](CCC(N)=O)C(=O)N[C@@H](CO)C(=O)N[C@H](C(=O)N[C@@H](CCCN)C(=O)N[C@@H](CC(N)=O)C(=O)N[C@@H](CCCN)C(=O)NCC(=O)NCC(=O)N1CCC[C@H]1C(=O)N[C@@H](CO)C(=O)N[C@@H](CO)C(=O)NCC(=O)N[C@@H](C)C(=O)N1CCC[C@H]1C(=O)N1CCC[C@H]1C(=O)N1CCC[C@H]1C(=O)N[C@@H](CO)C(=O)O)[C@@H](C)CC)C(C)C)[C@@H](C)O)[C@@H](C)O)C(C)C [Agonist P385] (Hexanoyl-HSDAVFTDNYT[Orn]LR[Aib]QVAA[Aib]KSLQSI[Orn]N[Orn]GGPSSGAPPPS-OH; C-terminus assumed)	> 25000 nM

What follows are molecules tested against T4, human VPAC2 receptor (assay: cell-based or functional assay). Conditions: not given.

Molecule	Human VPAC2 Receptor: Alpha Screen (EC50; nM), cAMP generation
HSDAVFTDNYTXLRXSVAAXKYLQSIXNXGGPSSGAPPPS (N-terminal hexanoyl (C6); Orn at 12, 27 and 29; Aib at 15 and 20) [VPAC2 receptor peptide agonist P390]	0.12 nM
HSDAVFTDQYTXLRXQLAAXXYLQSIXXGGPSSGAPPPS (N-terminal hexanoyl (C6); Orn at 12, 21, 27 and 28; Aib at 15 and 20) [VPAC2 receptor peptide agonist P395]	0.15 nM
HSDAVFTDQYTXLRXQVAAXXYLQSIXXGGPSSGAPPPS (N-terminal hexanoyl (C6); Orn at 12, 21, 27 and 28; Aib at 15 and 20) [VPAC2 receptor peptide agonist P396]	0.11 nM
B1	0.24 nM
Hexanoyl-HSEAVFTEQ[Tyr(OMe)]TR[Aib]R[Aib]QLAA[Aib]KYLQSIK[Aib]KGGPSSGAPPPS [VPAC2 receptor peptide agonist P409]	0.19 nM
Hexanoyl-HSDAVFTDQYTR[Aib]R[Aib]QLAA[Aib]KYLQSIK[Aib]KGGPSSGAPPPS [VPAC2 receptor peptide agonist P407]	0.12 nM
